Experiment [1] concerns the target Human EphA2-Fc fusion protein (human EphA2 fused with the Fc portion of a human IgG1) (human) (UniProt P29317). As to the kind of experiment: single point capture ELISA, 500 ng goat anti-human Fab, biotinylated EphA2-Fc 300 ng/well.
For experiment [2] the target is unchanged. The experiment can be described thus: single point capture ELISA, 20 ng goat anti-human Fab, biotinylated EphA2-Fc 300 ng/well.
Experiment [3] has the same target. As to the kind of experiment: single point capture ELISA, 500 ng goat anti-human Fab; same plate as VH-7E8/VL-8G7.
Experiment [4] shares this target. The experiment can be described thus: single point capture ELISA, 500 ng goat anti-human Fab; same plate as VH-6H11/VL-8G7. A general note: In an ELISA, binding on a coated surface is turned into a signal by an enzyme label.
The target is the same in experiment [5]. The experiment can be described thus: single point capture ELISA, 500 ng goat anti-human Fab; same plate as VH-2G6/VL-12C8.
Experiment [6] shares this target. As to the kind of experiment: single point capture ELISA, 100 ng goat anti-human Fab, biotinylated EphA2-Fc 300 ng/well.
For experiment [7] the target is unchanged. As to the kind of experiment: single point capture ELISA, 500 ng goat anti-human Fab, biotinylated EphA2-Fc 300 ng/well. The source holds these as a separate data set.
Experiment [8] has the same target. As to the kind of experiment: single point capture ELISA, 500 ng goat anti-human Fab; same plate as VH-233/VL-8G7.
Experiment [9] shares this target. The experiment can be described thus: single point capture ELISA, 500 ng goat anti-human Fab, biotinylated EphA2-Fc 300 ng/well. The source holds these as a separate data set.
Experiment [10] shares this target. The experiment can be described thus: single point capture ELISA, 500 ng goat anti-human Fab; same plate as VH-233/VL-12C8.
Experiment [11] has the same target. As to the kind of experiment: single point capture ELISA, 1 µg goat anti-human Fd, biotinylated EphA2-Fc 300-600 ng/well.
Experiment [12] deals with T1, Human EphA2-Fc fusion protein (human EphA2 fused with the Fc portion of a human IgG1) (human, UniProt P29317 24-534, limits assumed).
T1 construct: also called biotinylated human EphA2-Fc; not shown: Fc portion of a human IgG1
T1 sequence (P29317 24-534 limits assumed): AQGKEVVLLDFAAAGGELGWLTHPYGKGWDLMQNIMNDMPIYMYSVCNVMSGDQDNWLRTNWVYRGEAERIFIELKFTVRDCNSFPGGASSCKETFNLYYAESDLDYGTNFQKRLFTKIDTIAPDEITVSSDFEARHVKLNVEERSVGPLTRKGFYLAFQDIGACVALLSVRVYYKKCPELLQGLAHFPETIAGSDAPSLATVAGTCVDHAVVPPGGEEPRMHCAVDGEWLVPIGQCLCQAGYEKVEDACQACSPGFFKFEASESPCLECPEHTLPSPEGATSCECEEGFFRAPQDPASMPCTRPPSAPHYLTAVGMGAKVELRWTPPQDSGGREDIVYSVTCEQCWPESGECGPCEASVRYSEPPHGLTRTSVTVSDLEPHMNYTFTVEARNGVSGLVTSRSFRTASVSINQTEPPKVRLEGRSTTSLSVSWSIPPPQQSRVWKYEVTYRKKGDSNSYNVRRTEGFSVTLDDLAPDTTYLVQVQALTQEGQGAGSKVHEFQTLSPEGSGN
The experiment can be described thus: BIAcore, human IgG1 format on immobilized EphA2-Fc. For orientation: In SPR one partner is held on a chip, and binding of the other changes the refractive index at the surface.

For experiment [13], the target named is T1, Human EphA2-Fc fusion protein (human …). The experiment can be described thus: SPR (BIAcore 3000), EphA2-Fc coupled to CM5 chip (~500 RU), IgG in solution, koff/kon. How it is done:
(§1) EphA2-Fc was coupled to the dextran matrix of a CM5 sensor chip (Pharmacia Biosensor) using an Amine Coupling Kit as described (B. Johnsson et al., 1991, Anal. Biochem. 198: 268-277) at a surface density of approximately 500 RU. IgGs were diluted in 0.01 M HEPES pH 7.4 containing 0.15 M NaCl, 3 mM EDTA and 0.005% P20. All subsequent dilutions were made in the same buffer. All binding experiments were performed at 25° C. with IgG concentrations typically ranging from 100 nM to 0.2 nM at a flow rate of 75 μL/min; data were collected for approximately 25 min and two 30-sec pulse of 1M NaCl, 50 mM NaOH was used to regenerate the surfaces. IgGs were also flowed over an uncoated cell and the sensorgrams from these blank runs subtracted from those obtained with EphA2-Fc-coupled chips. Data were fitted to a 1:1 Langmuir binding model. This algorithm calculates both the kₒₙ and the koff, from which the apparent equilibrium dissociation constant, KD, is deduced as the ratio of the two rate constants (koff/kₒₙ).

Experiment [14] has the same target. The experiment can be described thus: SPR (BIAcore 3000), EphA2-Fc coupled to CM5 chip (~500 RU), IgG in solution, 1:1 Langmuir fit. How it is done: as §1
The target in experiment [15] is Human EphA2-Fc fusion protein (human EphA2 fused with the Fc portion of a human IgG1) (human) (UniProt P29317). The experiment can be described thus: single point capture ELISA, periplasmic extracts from 15 ml culture, 500 ng goat anti-human Fab.
Chain of Human EphA2-Fc fusion protein (human EphA2 fused with the Fc portion of a human IgG1) (human) (P29317 24-534 limits assumed): as above
For experiment [16] the target is unchanged. As to the kind of experiment: single point capture ELISA, periplasmic Fab on 500 ng goat anti-human Fab, biotinylated EphA2-Fc 300 ng/well.
The target in experiment [17] is T1, Human EphA2-Fc fusion protein (human …). The experiment can be described thus: SPR (BIAcore 3000), EphA2-Fc coupled to CM5 chip, IgG in solution, 1:1 Langmuir fit. How it is done: as §1, with “IgGs” for “EphA2-Fc was coupled to the dextran matrix of a CM5 sensor chip (Pharmacia Biosensor) using an Amine Coupling Kit as described (B. Johnsson et al., 1991, Anal. Biochem. 198: 268-277) at a surface density of approximately 500 RU. IgGs”, “one 1-min” for “two 30-sec”, “1 M” for “1M”

The target is the same in experiment [18]. As to the kind of experiment: SPR (BIAcore 3000), EphA2-Fc coupled to CM5 chip, IgG in solution, koff/kon. How it is done:
as §1, with “IgGs” for “EphA2-Fc was coupled to the dextran matrix of a CM5 sensor chip (Pharmacia Biosensor) using an Amine Coupling Kit as described (B. Johnsson et al., 1991, Anal. Biochem. 198: 268-277) at a surface density of approximately 500 RU. IgGs”, “one 1-min” for “two 30-sec”, “1 M” for “1M”

Substitutions are numbered along the chain they refer to.

For irrelevant antibody (MEDI-493), the OD450 (background signal) is 0.07 to 0.1 OD450 in experiment [1]; 0.1 OD450 in [2]; 0.2 OD450 in experiment [3]; 0.2 OD450 in experiment [4]; 0.3 OD450 in experiment [5]; 0.1 to 0.4 OD450 in experiment [6]. Besides, the OD450 (background signal) was 0.3 OD450 in [7], 0.2 OD450 in [8], 0.06 to 0.2 OD450 in experiment [9] and 0.1 OD450 in [10].
“irrelevant antibody (background control of Example 2)” displayed an OD450 (background signal) in [11] of 0.3 OD450.

B1: VH-4H5/VL-4H5 full length human IgG1 (antibody, V domains shown)
VH: QVQLLESGGGLVQPGGSLRLSCAASGFTFSSYTMSWVRQAPGQALEWMGTISSGGTYTYYPDSVKGRFTISRDNAKNSLYLQMNSLRAEDTAVYYCAREAIFTYWGRGTLVTVSS
VL: DIQLTQSPSSLSASVGDRVTITCKASQDINNYLSWYQQKPGQAPRLLIYRANRLVDGVPDRFSGSGYGTDFTLTINNIESEDAAYYFCLKYDVFPYTFGQGTKVEIK
notes: Human IgG1 / human kappa, expressed in HEK 293 cells
As for B1, the “fold avidity increase against parental mAb EA2” value in experiment [12] stood at 90 fold. The Kd (usually a measure of binding affinity in units of concentration) in experiment [13] came to 0.067 nM. In [14], the koff (commonly a measure of how fast the partners let go of each other) was 6.6e-05 s⁻¹ and the kon – broadly, the second-order rate constant of association – is 980000 M⁻¹ s⁻¹.

B2: VH-4H5/VL-“corrected” 4H5 full length human IgG1 (antibody, V domains shown)
VH: B1 VH
VL: B1 VL with V93E
notes: Human IgG1 / human kappa, expressed in HEK 293 cells; also called 4H5 corrected
For B2, the “fold avidity increase against parental mAb EA2” value in experiment [12] turned out to be 4 fold. The same molecule had an equilibrium dissociation constant (Kd) in experiment [13] of 1.4 nM. In experiment [14], this molecule had a koff of 0.00105 s⁻¹ and a kon of 750000 M⁻¹ s⁻¹.

B3: VH-2G6/VL-12C8 Fab (framework-shuffled, fully humanized clone from library B) (Fab, from another filing, V domains shown)
VH: EVQLVESGGGVVRPGGSLRLSCAASGFTVSDYSMNWVRQAPGKGLEWIGFIRNKANDYTTEYSASVKGRFTISRDDSKNTLYLQMNSLKTEDTAVYYCTTYPRYHAMDSWGQGTMVTVSS
VL: AIQLTQSPSSLSASVGDRVTITCRASQSISNNLHWYLQKPGQSPQLLIYYVFQSISGVPSRFSGSGSGTDFTLTISSLQPEDFATYYCQQSNSWPLTFGGGTKLEIK
Take B3: the [specific OD450/background OD450] ratio in [15] was found to be 40. Moreover, the OD450 in experiment [16] stood at 2.8 OD450.

B4: VH-2G6/VL-12C8 (humanized) full length human IgG1 (antibody, V domains shown)
VH: B3 VH
VL: B3 VL
notes: as for B1
In the case of B4, the “fold avidity decrease against parental mAb B233” value (shortened to “fold avidity decrease”) in experiment [12] was determined as 10 fold. In [17], this molecule came in with a koff of 0.00019 s⁻¹ and a kon of 64000 M⁻¹ s⁻¹. In addition, the Kd in [18] stood at 3 nM.

B5: mAb EA2 (mouse anti-human EphA2 monoclonal antibody) (antibody, V domains shown)
VH: DVKLVESGGGLVKPGGSLKLSCAASGFTFSSYTMSWVRQTPEKRLEWVATISSGGTYTYYPDSVKGRFTISRDNAKNTLYLQMSSLKSEDTAMYYCTREAIFTYWGQGTLVTVSA
VL: DIKMTQSPSSMYASLGERVTITCKASQDINNYLSWFQQKPGKSPKTLIYRANRLVDGVPSRFSGSGSGQDYSLTISSLEYEDMGIYYCLKYDEFPYTFGGGTKLEIK
notes: Murine hybridoma antibody; also called EA2 (murine); parental mAb EA2
In experiment [13], B5 gave a Kd of 5.94 nM. In [14], this molecule gave a koff of 0.00307 s⁻¹ and a kon of 517000 M⁻¹ s⁻¹.

B6: VH-6H11/VL-8G7 (humanized) full length human IgG1 (antibody, V domains shown)
VH: EVQLVESGGGLVQPGGSLRLSCAASGFTFSDYSMNWVRQAPGKGLEWVAFIRNKANDYTTEYSASVKGRFTISRDNSKNTLYLQMNSLRAEDTAMYYCARYPRYHAMDSWGQGTLVTVSS
VL: EIVLTQSPATLSVSPGERATLSCRASQSISNNLHWYQQKPGKAPKSLIYYVFQSISGVPSRFSGSGSGTDFTLTINSLEAEDAATYYCQQSNSWPLTFGGGTKVDIK
notes: as for B1
For B6, the “fold avidity decrease” value in experiment [12] was determined as 6 fold. Further, in experiment [17], the koff turned out to be 0.00018 s⁻¹ and the kon was determined as 96000 M⁻¹ s⁻¹. The Kd in experiment [18] stood at 1.9 nM.

B7: VH-7E8/VL-8G7 (humanized) full length human IgG1 (antibody, V domains shown)
VH: B3 VH with V11L, R13K, V29F, P41S, I48V, M115L
VL: B6 VL
notes: as for B1
Regarding B7, in experiment [12], the “fold avidity decrease” value is 160 fold. In addition, in experiment [17], the koff was determined as 0.00045 s⁻¹ and the kon came to 9300 M⁻¹ s⁻¹. Also, in experiment [18], the Kd stood at 48 nM.

B8: mAb B233 (mouse anti-human EphA2 monoclonal antibody) (antibody, V domains shown)
VH: EVKLVESGGGLVQPGGSLSLSCAASGFTFTDYSMNWVRQPPGKALEWLGFIRNKANDYTTEYSASVKGRFTISRDNSQSILYLQMNALRAEDSATYYCVRYPRYHAMDSWGQGTSVTVSS
VL: DIVLTQSPATLSVTPGDSVNLSCRASQSISNNLHWYQQKSHESPRLLIKYVFQSISGIPSRFSGSGSGTDFTLSINSVETEDFGMYFCQQSNSWPLTFGAGTKLELK
notes: Murine hybridoma antibody; also called B233 (murine); parental mAb B233
In experiment [17], B8 showed a koff of 0.00011 s⁻¹ and a kon of 280000 M⁻¹ s⁻¹. Also, in [18], the Kd was 0.4 nM.

B9: VH-233/VL-233 IgG (chimaeric form of mAb B233, full length human IgG1) (antibody, V domains shown)
VH: B8 VH
VL: B8 VL
notes: Human IgG1 / human kappa constant regions, expressed in HEK 293 cells; also called VH-B233/VL-B233 (chimeric); chimaeric B233
For B9, in experiment [17], the koff turned out to be 8e-05 s⁻¹ and the kon amounted to 240000 M⁻¹ s⁻¹. The molecule also came in with a Kd in experiment [18] of 0.3 nM.
